± gives the standard deviation of the averaged measurements.
How the values were obtained:
Saccharomyces cerevisiae [1] = test: protein stability index of tFT-peptide fusion (C-terminal peptide) (PSI (0-1 scale)); higher = more stable (slower turnover); conditions: genetic background: wild type; temperature: 30 C
Saccharomyces cerevisiae [2] = test: as above
Experimental: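 MPS profiling in S. cerevisiae of the tFT-X12 degron library: putative degron peptides plus stable controls, 12 aa, fused to the C-terminus of a sfGFP-mCherry timer. Cells are FACS-sorted into 8 mCherry/sfGFP bins and deep-sequenced. PSI runs from 0 (unstable) to 1 (stable). Backgrounds are wild type, das1Δ and doa10Δ at 30 °C, and wild type, das1Δ, cdc34-1 and cdc53-1 at 37 °C; 2-3 technical replicates each.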

[3] = genetic background: cdc34-1, temperature: 37 C
[4] = genetic background: cdc53-1, temperature: 37 C
[5] = genetic background: das1 deletion, temperature: 30 C
[6] = genetic background: das1 deletion, temperature: 37 C
[7] = genetic background: doa10 deletion, temperature: 30 C
[8] = genetic background: wild type, temperature: 30 C
[9] = genetic background: wild type, temperature: 37 C
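Also: PSI is a weighted mean of sequencing reads over stability bins, variants kept only with over 10 reads, mCherry proximal and sfGFP distal, peptide attached via GGGS linker.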

Sequence | protein stability index (Saccharomyces cerevisiae [1]) | protein stability index (Saccharomyces cerevisiae [2]; [3]) | protein stability index (Saccharomyces cerevisiae [2]; [4]) | protein stability index (Saccharomyces cerevisiae [2]; [5]) | protein stability index (Saccharomyces cerevisiae [2]; [6]) | protein stability index (Saccharomyces cerevisiae [2]; [7]) | protein stability index (Saccharomyces cerevisiae [2]; [8]) | protein stability index (Saccharomyces cerevisiae [2]; [9])
FFFFFIHFLCYF | 0.31 ± 0.035 | 0.239 ± 0.019 | 0.208 ± 0.0039 | 0.249 ± 0.034 | 0.383 ± 0.021 | 0.288 ± 0.0065 | 0.239 ± 0.047 | 0.357 ± 0.0053
FCFYLLFLGFTR | 0.431 ± 0.011 | 0.475 ± 0.035 | 0.512 ± 0.042 | 0.364 ± 0.027 | 0.546 ± 0.053 | 0.37 ± 0.01 | 0.324 ± 0.018 | 0.523 ± 0.029
PPPRLPLLSCSQ | 0.408 ± 0.013 | 0.661 ± 0.025 | 0.679 ± 0.0094 | 0.669 ± 0.016 | 0.6752 ± 0.00072 | 0.632 ± 0.024 | 0.638 ± 0.034 | 0.66 ± 0.022
VFFIFFFAFLFF | 0.329 ± 0.051 | 0.294 ± 0.035 | 0.289 ± 0.0075 | 0.335 ± 0.052 | 0.41 ± 0.0072 | 0.393 ± 0.01 | 0.322 ± 0.014 | 0.39 ± 0.03
GLVVMFVIAGGG | 0.404 ± 0.015 | 0.405 ± 0.0067 | 0.459 ± 0.008 | 0.284 ± 0.05 | 0.5057 ± 0.00061 | 0.2577 ± 0.0014 | 0.299 ± 0.034 | 0.464 ± 0.015
LLFFGFVGSCVF |  | 0.6341 ± 0.0023 | 0.6187 ± 0.0052 | 0.468 ± 0.028 | 0.671 ± 0.041 | 0.471 ± 0.047 | 0.485 ± 0.036 | 0.57 ± 0.0036
GRCGGPRSLGVG | 0.547 ± 0.07 | 0.562 ± 0.036 | 0.589 ± 0.022 | 0.52 ± 0.022 | 0.5989 ± 0.001 | 0.5493 ± 0.0022 | 0.538 ± 0.012 | 0.5853 ± 0.0057
CLLVCCCFYRNV | 0.469 ± 0.0069 | 0.501 ± 0.043 | 0.558 ± 0.0066 | 0.409 ± 0.032 | 0.586 ± 0.0086 | 0.371 ± 0.015 | 0.399 ± 0.025 | 0.523 ± 0.0091
IPFRRCFWFFWV | 0.2345 ± 0.0012 | 0.537 ± 0.029 | 0.7 ± 0.011 | 0.593 ± 0.035 | 0.6909 ± 0.0044 | 0.143 ± 0.014 | 0.167 ± 0.024 | 0.204 ± 0.027
FFSCFFFSVLYR | 0.377 ± 0.035 | 0.2699 ± 0.00059 | 0.214 ± 0.018 | 0.302 ± 0.042 | 0.425 ± 0.031 | 0.469 ± 0.022 | 0.302 ± 0.029 | 0.384 ± 0.018
LFDVLFVFSFIF | 0.449 ± 0.045 | 0.4681 ± 0.0013 | 0.524 ± 0.006 | 0.413 ± 0.017 | 0.535 ± 0.015 | 0.432 ± 0.034 | 0.42 ± 0.024 | 0.503 ± 0.019
ILRKTAFRLRVL | 0.397 ± 0.025 | 0.623 ± 0.047 | 0.635 ± 0.0073 | 0.525 ± 0.011 | 0.658 ± 0.023 | 0.228 ± 0.016 | 0.264 ± 0.024 | 0.376 ± 0.01
CSSSNRRRYFVL | 0.187 ± 0.023 | 0.603 ± 0.034 | 0.706 ± 0.027 | 0.66 ± 0.014 | 0.724 ± 0.033 | 0.115 ± 0.022 | 0.131 ± 0.037 | 0.191 ± 0.0041
FFFLVRLCRLCV | 0.292 ± 0.055 | 0.478 ± 0.043 | 0.558 ± 0.02 | 0.46 ± 0.019 | 0.575 ± 0.025 | 0.266 ± 0.0098 | 0.261 ± 0.011 | 0.353 ± 0.0078
CPPPCPLYMLLC | 0.264 ± 0.025 | 0.506 ± 0.03 | 0.614 ± 0.041 | 0.536 ± 0.03 | 0.6121 ± 0.0031 | 0.163 ± 0.017 | 0.17 ± 0.024 | 0.171 ± 0.013
ACCGVFFFFFWL | 0.404 ± 0.018 | 0.403 ± 0.029 | 0.479 ± 0.018 | 0.366 ± 0.031 | 0.414 ± 0.016 | 0.363 ± 0.0061 | 0.35 ± 0.02 | 0.433 ± 0.031
VPWSKIAARLII | 0.446 ± 0.068 | 0.6593 ± 0.0029 | 0.706 ± 0.011 | 0.618 ± 0.02 | 0.734 ± 0.022 | 0.227 ± 0.015 | 0.315 ± 0.054 | 0.5015 ± 0.0036
RLVYSQKRWSLF | 0.24 ± 0.006 | 0.673 ± 0.07 | 0.764 ± 0.032 | 0.653 ± 0.014 | 0.76378 ± 0.0006 | 0.167 ± 0.037 | 0.181 ± 0.032 | 0.451 ± 0.027
GVRCRLVIRVLG | 0.316 ± 0.028 | 0.47 ± 0.035 | 0.508 ± 0.0085 | 0.286 ± 0.016 | 0.516 ± 0.0056 | 0.16864 ± 0.00011 | 0.22 ± 0.0075 | 0.407 ± 0.0064
LWWTRVILYGYI | 0.387 ± 0.036 | 0.51 ± 0.0061 | 0.571 ± 0.021 | 0.456 ± 0.027 | 0.5496 ± 0.0039 | 0.34 ± 0.0087 | 0.353 ± 0.016 | 0.445 ± 0.013
VVLWWWVVARDL | 0.44 ± 0.028 | 0.414 ± 0.019 | 0.495 ± 0.038 | 0.402 ± 0.03 | 0.551 ± 0.031 | 0.332 ± 0.026 | 0.339 ± 0.03 | 0.514 ± 0.01
GALVVSWAEVLC | 0.503 ± 0.012 | 0.5163 ± 0.0026 | 0.525 ± 0.01 | 0.402 ± 0.024 | 0.555 ± 0.0083 | 0.372 ± 0.014 | 0.402 ± 0.037 | 0.57 ± 0.02
WPPPPPSLLLLC |  | 0.4666 ± 0.0016 | 0.548 ± 0.022 | 0.473 ± 0.016 | 0.611 ± 0.017 | 0.127 ± 0.0019 | 0.149 ± 0.019 | 0.177 ± 0.024
RPPHPPPATFLS |  | 0.617 ± 0.064 | 0.7 ± 0.0084 | 0.679 ± 0.018 | 0.727 ± 0.0097 | 0.226 ± 0.025 | 0.253 ± 0.025 | 0.487 ± 0.021
YIYIFLVWGWYC |  | 0.193 ± 0.056 | 0.314 ± 0.016 | 0.214 ± 0.033 | 0.4232 ± 0.0041 | 0.103 ± 0.013 | 0.132 ± 0.0065 | 0.201 ± 0.018

Source: the supplement of paper PMC10724198
